Data as given in patent US20130289246A1.
Where two headings read alike, the source gives them in different places.

B1: mAb 4K8 (antibody, V domains shown)
VH: EVQLVESGGGLVQPGGSLRLSCAASEFNFKSYWMTWVRQAPGKGLEWVANINQDGSEKNYVDSVKGRFTISRDNAKNSLHLQMSSLRVDDTAVYYCARTGSSWDTYYYYYAMDVWGQGTTVTVS
VL: DIQLTQSPVSLSLSPGERATLSCRASQSVSSSYLVWYQQKPGQAPRLLIYGASSRAPGIPDRFSGSGSGTDFTLTISRLEREDFAVYYCQQYGRSFGQGTKVEIKR
B2: mAb 6D9 (antibody, V domains shown)
VH: EVQLVESGGGLVQPGGSLRLSCAASGFIFESYWMTWVRQAPGKGLEWVANIKQDGSEKNYVDSVKGRFTISRDNAKTSLYLQMNSLRAEDTAMYYCARSGSNWDTYYYYYGMDVWGQGTTVTVS
VL: EIVLTQSPGTLSLSPGERATLSCRASQSVDSNYLGWYQQRPGQAPRLLIYGASSRATGVPDRFSASGSGTDFTLSISRLEPEDFAVYYCQQYGSSFGQGTKVEIKR
B3: mAb 3N6 (recombinant) (antibody, V domains shown)
VH: QVQLQESGPGLVKPSETLSLTCSVSGGSINYYYWSWIRQPPGKGLECIGYISDTGRTYYNPSLRSRVTISVDTSKNQFSLNLTSMTAADTAVYYCARDPTGSRQKNAFDMWGQGTMVTVS
VL: AIQMTQSPSSLSASVGDRVTITCRASQNIRSYLNWYQQKPGKAPNLLIYGTTSLESGVPSRFSGSGSGTDFTLTISSLQPEDFATYYCQQSYHTPQTFGQGTKVEIKR
B4: mAb 6J24 (antibody, V domains shown)
VH: EVQLVESGGGLVQPGRSLRLSCVGSGFNFDGYAMQWVRQVPGKGLEWVSGISWHSDSTGYADSVRGRFTISRDNAKNSLYLQMDSLRPEDTAFYYCGKSIGHVGGSYRHPIDYWGQGTLVTVS
VL: DIQLTQSPSSLSASVGDRVTITCRASQGITDYLAWYQQKPGTIPKLLIYAASTLQSGVPSRFSGGGYGTDFTLTISSLQPEDVATYYCQKYNSAPLTFGGGTKVEIKR
B5: mAb 5I17 (antibody, V domains shown)
VH: EVQLVESGGGVVQPGRSLRLSCAASGFSFSNYAMHWVRQAPGKGLEWVALISFDGSDKYYADSVKGRFTMSRDNSKNTLYLQMNSLRAEDTAVYYCARDEPYCGGDCFAFDVWGQGTMVTVS
VL: DIQLTQSPSSLSASAGDRVSMTCRASQIISSSLNWYQQKPGKAPKLLIYAASNLQSGVPSRFSGSGSGTDFTLTISSLQPEDFATYYCQQSYSTPPELTFGGGTKVDIKR

What was measured:
[1] = biological target: HA of A/Weiss/1943 (H1N1) virus (Influenza A virus (H1N1)); assay: cell-based or functional assay
[2] = biological target: HA of A/L3/1947 (H1N1) virus (Influenza A virus (H1N1)); assay: cell-based or functional assay
[3] = biological target: HA of A/New Jersey/11/1976 (H1N1) virus (Influenza A virus (H1N1)); assay: cell-based or functional assay
[4] = biological target: HA of A/swine/Iowa/15/1930 (H1N1) virus (Influenza A virus (H1N1)); assay: cell-based or functional assay
[5] = biological target: HA of A/Brisbane/59/2007 (H1N1) virus (Influenza A virus (H1N1)); assay: cell-based or functional assay
[6] = biological target: HA of A/New Caledonia/20/1999 (H1N1) virus (Influenza A virus (H1N1)); assay: cell-based or functional assay
[7] = biological target: HA of A/California/04/2009 (H1N1) virus (Influenza A virus (H1N1)); assay: cell-based or functional assay
[8] = biological target: HA of A/South Carolina/1/1918 (H1N1), wild type, on VLP (Influenza A virus A/South Carolina/1/1918 (H1N1)) (UniProt Q9WFX3); assay: cell-based or functional assay
[9] = biological target: HA of A/USSR/92/1977 (H1N1) virus (Influenza A virus (H1N1)); assay: cell-based or functional assay
[10] = biological target: 1997 H6N1 HA (Influenza A virus (H6N1, 1997)); assay: ELISA, recombinant mAb
[11] = biological target: recombinant soluble trimeric 2009 H1 HA (A/California/04/2009, wild type) (Influenza A virus A/California/04/2009 (H1N1)); assay: ELISA, recombinant mAb
[12] = biological target: recombinant soluble 1957 H2 HA (A/Japan/305+/1957) (Influenza A virus A/Japan/305+/1957 (H2N2)); assay: ELISA, recombinant mAb
[13] = biological target: soluble 2004 H5 HA (Influenza A virus (H5N1, 2004)); assay: ELISA, recombinant mAb
[14] = biological target: 1997 H9N2 HA (Influenza A virus (H9N2, 1997)); assay: ELISA, recombinant mAb
[15] = biological target: soluble 1999 H1 HA (seasonal 1999 H1N1) (Influenza A virus (H1N1, 1999)); assay: ELISA, recombinant mAb
[16] = biological target: recombinant soluble trimeric 2009 H1 HA (A/California/04/2009, wild type) (Influenza A virus A/California/04/2009 (H1N1)); assay: ELISA, recombinant mAb; remark: listed apart in the source
[17] = biological target: recombinant soluble 1957 H2 HA (A/Japan/305+/1957) (Influenza A virus A/Japan/305+/1957 (H2N2)); assay: ELISA, recombinant mAb; remark: listed apart in the source
[18] = biological target: soluble 2004 H5 HA (Influenza A virus (H5N1, 2004)); assay: ELISA, recombinant mAb; remark: listed apart in the source
[19] = biological target: soluble 1999 H1 HA (seasonal 1999 H1N1) (Influenza A virus (H1N1, 1999)); assay: ELISA, recombinant mAb; remark: listed apart in the source
[20] = biological target: recombinant soluble trimeric 2009 H1 HA (A/California/04/2009, wild type) (Influenza A virus A/California/04/2009 (H1N1)); assay: ELISA, supernate; further: test concentration or dose not given here
[21] = biological target: recombinant soluble 1957 H2 HA (A/Japan/305+/1957) (Influenza A virus A/Japan/305+/1957 (H2N2)); assay: ELISA, supernate; further: test concentration or dose not given here
[22] = biological target: soluble 2004 H5 HA (Influenza A virus (H5N1, 2004)); assay: ELISA, supernate; further: test concentration or dose not given here
[23] = biological target: soluble 1999 H1 HA (seasonal 1999 H1N1) (Influenza A virus (H1N1, 1999)); assay: ELISA, supernate; further: test concentration or dose not given here
[24] = biological target: 1997 H6N1 HA (Influenza A virus (H6N1, 1997)); assay: ELISA, supernate
[25] = biological target: recombinant soluble trimeric 2009 H1 HA (A/California/04/2009, wild type) (Influenza A virus A/California/04/2009 (H1N1)); assay: ELISA, supernate; remark: listed apart in the source; further: test concentration or dose not given here
[26] = biological target: recombinant soluble 1957 H2 HA (A/Japan/305+/1957) (Influenza A virus A/Japan/305+/1957 (H2N2)); assay: ELISA, supernate; remark: listed apart in the source; further: test concentration or dose not given here
[27] = biological target: soluble 2004 H5 HA (Influenza A virus (H5N1, 2004)); assay: ELISA, supernate; remark: listed apart in the source; further: test concentration or dose not given here
[28] = biological target: 1997 H9N2 HA (Influenza A virus (H9N2, 1997)); assay: ELISA, supernate
[29] = biological target: soluble 1999 H1 HA (seasonal 1999 H1N1) (Influenza A virus (H1N1, 1999)); assay: ELISA, supernate; remark: listed apart in the source; further: test concentration or dose not given here
[30] = biological target: recombinant soluble 1968 H3 HA (A/Aichi/2/1968) (Influenza A virus A/Aichi/2/1968 (H3N2)) (UniProt P03437); assay: ELISA, supernate
[31] = biological target: recombinant soluble trimeric 1918 H1 HA (A/South Carolina/1/1918, wild type) (Influenza A virus A/South Carolina/1/1918 (H1N1)) (UniProt Q9WFX3); assay: ELISA, supernate
[32] = biological target: recombinant soluble 1968 H3 HA (A/Aichi/2/1968) (Influenza A virus A/Aichi/2/1968 (H3N2)) (UniProt P03437); assay: ELISA, supernate; remark: listed apart in the source
[33] = biological target: recombinant soluble trimeric 1918 H1 HA (A/South Carolina/1/1918, wild type) (Influenza A virus A/South Carolina/1/1918 (H1N1)) (UniProt Q9WFX3); assay: ELISA, supernate; remark: listed apart in the source

Row | Binder | HAI activity [1] [µg/mL] | HAI activity [2] [µg/mL] | HAI activity [3] [µg/mL] | HAI activity [4] [µg/mL] | HAI activity [5] [µg/mL] | HAI activity [6] [µg/mL] | HAI activity [7] [µg/mL] | HAI activity [8] [µg/mL] | HAI activity [9] [µg/mL] | OD [20] [OD] | OD [21] [OD] | OD [22] [OD] | OD [23] [OD] | OD [24] [OD] | OD [25] [OD] | OD [26] [OD] | OD [27] [OD] | OD [28] [OD] | OD [29] [OD] | also measured
1 | B1 | > 20 | > 20 | 0.16 | < 0.01 | > 20 | > 20 | < 0.01 | < 0.01 | 0.32 | – | – | – | – | – | – | – | – | – | – | –
2 | B2 | > 20 | > 20 | 1.3 | 0.4 | > 20 | > 20 | 0.7 | 0.2 | 2.5 | – | – | – | – | – | – | – | – | – | – | –
3 | B3 | – | – | – | – | – | – | – | – | – | – | – | – | – | – | – | – | – | – | – | OD [10]: 0.23 OD; OD [11]: 2.69 OD; OD [12]: 0.801 OD; OD [13]: 3.07 OD; OD [14]: 0.084 OD; OD [15]: 1.49 OD; OD [16]: 1.03 OD; OD [17]: 0.57 OD; OD [18]: 2.03 OD; OD [19]: 0.909 OD
4 | B4 | – | – | – | – | – | – | – | – | – | 0.981 | 0.219 | 0.379 | 0.183 | 0.163 | 0.102 | 0.097 | 0.182 | 0.075 | 0.083 | –
5 | B5 | – | – | – | – | – | – | – | – | – | 0.668 | 0.85 | 1.55 | 1.93 | 0.11 | 0.566 | 1.38 | 1.17 | 1.98 | 1.19 | OD [30]: 0.267 OD; OD [31]: 0.495 OD; OD [32]: 0.156 OD; OD [33]: 0.522 OD
